Measured values published in the RNAGym collection of RNA variant scans (doi:10.1021/acssynbio.7b00057).

B1: Pistol ribozyme (parent)
chain: GGGUCGUUGUUCCAUAAUCGCGUGGAUAUGGCACGCAAGUUUCUACCGGGCACCGUAAAUGUCCGACUGGAGCCGUUCGGGCGGCUAUAAACAGACCUCAGGCCCGAAGCGUGGCGGCACCUGCCGCCGGUGGUAAAAAAGAUCGGAAGAGCACACGUCU

Variants of: B1
Assay: aptazyme ON/OFF ratio, guanine; higher = stronger switching; co-transcriptional cleavage with and without guanine

Row | Variant | aptazyme ON/OFF ratio
1 | GGGUCGCUCCGACAUAAUCGCGUGGAUAUGGCACGCAAGUUUCUACCGGGCACCGUAAAUGUCCGACUGGAGCCGUUCGGGCGGCUAUAAACAGACCUCAGGCCCGAAGCGUGGCGGCACCUGCCGCCGGUGGUAAAAAAGAUCGGAAGAGCACACGUCU [U7C G9C U10C U11G C12A] | 1.05
2 | GGGUCGCUCCGGCAUAAUCGCGUGGAUAUGGCACGCAAGUUUCUACCGGGCACCGUAAAUGUCCGACUGGAGCCGUUCGGGCGGCUAUAAACAGACCUCAGGCCCGAAGCGUGGCGGCACCUGCCGCCGGUGGUAAAAAAGAUCGGAAGAGCACACGUCU [U7C G9C U10C U11G C12G] | 1.14
3 | GGGUCGCUCCCCCAUAAUCGCGUGGAUAUGGCACGCAAGUUUCUACCGGGCACCGUAAAUGUCCGACUGGAGCCGUUCGGGCGGCUAUAAACAGACCUCAGGCCCGAAGCGUGGCGGCACCUGCCGCCGGUGGUAAAAAAGAUCGGAAGAGCACACGUCU [U7C G9C U10C U11C] | 0.99
4 | GGGUCGCUCCGCCAUAAUCGCGUGGAUAUGGCACGCAAGUUUCUACCGGGCACCGUAAAUGUCCGACUGGAGCCGUUCGGGCGGCUAUAAACAGACCUCAGGCCCGAAGCGUGGCGGCACCUGCCGCCGGUGGUAAAAAAGAUCGGAAGAGCACACGUCU [U7C G9C U10C U11G] | 1.07
5 | GGGUCGCUCCACUAUAAUCGCGUGGAUAUGGCACGCAAGUUUCUACCGGGCACCGUAAAUGUCCGACUGGAGCCGUUCGGGCGGCUAUAAACAGACCUCAGGCCCGAAGCGUGGCGGCACCUGCCGCCGGUGGUAAAAAAGAUCGGAAGAGCACACGUCU [U7C G9C U10C U11A C13U] | 1.03
6 | GGGUCGCUCCACAAUAAUCGCGUGGAUAUGGCACGCAAGUUUCUACCGGGCACCGUAAAUGUCCGACUGGAGCCGUUCGGGCGGCUAUAAACAGACCUCAGGCCCGAAGCGUGGCGGCACCUGCCGCCGGUGGUAAAAAAGAUCGGAAGAGCACACGUCU [U7C G9C U10C U11A C13A] | 1.09
7 | GGGUCGCUCCACGAUAAUCGCGUGGAUAUGGCACGCAAGUUUCUACCGGGCACCGUAAAUGUCCGACUGGAGCCGUUCGGGCGGCUAUAAACAGACCUCAGGCCCGAAGCGUGGCGGCACCUGCCGCCGGUGGUAAAAAAGAUCGGAAGAGCACACGUCU [U7C G9C U10C U11A C13G] | 1.05
8 | GGGUCGCUCCAGGAUAAUCGCGUGGAUAUGGCACGCAAGUUUCUACCGGGCACCGUAAAUGUCCGACUGGAGCCGUUCGGGCGGCUAUAAACAGACCUCAGGCCCGAAGCGUGGCGGCACCUGCCGCCGGUGGUAAAAAAGAUCGGAAGAGCACACGUCU [U7C G9C U10C U11A C12G C13G] | 1.41
9 | GGGUCGCUCCAGAAUAAUCGCGUGGAUAUGGCACGCAAGUUUCUACCGGGCACCGUAAAUGUCCGACUGGAGCCGUUCGGGCGGCUAUAAACAGACCUCAGGCCCGAAGCGUGGCGGCACCUGCCGCCGGUGGUAAAAAAGAUCGGAAGAGCACACGUCU [U7C G9C U10C U11A C12G C13A] | 1.31
10 | GGGUCGCUCCAGUAUAAUCGCGUGGAUAUGGCACGCAAGUUUCUACCGGGCACCGUAAAUGUCCGACUGGAGCCGUUCGGGCGGCUAUAAACAGACCUCAGGCCCGAAGCGUGGCGGCACCUGCCGCCGGUGGUAAAAAAGAUCGGAAGAGCACACGUCU [U7C G9C U10C U11A C12G C13U] | 1.14
11 | GGGUCGCUCCCUUAUAAUCGCGUGGAUAUGGCACGCAAGUUUCUACCGGGCACCGUAAAUGUCCGACUGGAGCCGUUCGGGCGGCUAUAAACAGACCUCAGGCCCGAAGCGUGGCGGCACCUGCCGCCGGUGGUAAAAAAGAUCGGAAGAGCACACGUCU [U7C G9C U10C U11C C12U C13U] | 1.01
12 | GGGUCGCUCCCUAAUAAUCGCGUGGAUAUGGCACGCAAGUUUCUACCGGGCACCGUAAAUGUCCGACUGGAGCCGUUCGGGCGGCUAUAAACAGACCUCAGGCCCGAAGCGUGGCGGCACCUGCCGCCGGUGGUAAAAAAGAUCGGAAGAGCACACGUCU [U7C G9C U10C U11C C12U C13A] | 1.03
13 | GGGUCGCUCCCUGAUAAUCGCGUGGAUAUGGCACGCAAGUUUCUACCGGGCACCGUAAAUGUCCGACUGGAGCCGUUCGGGCGGCUAUAAACAGACCUCAGGCCCGAAGCGUGGCGGCACCUGCCGCCGGUGGUAAAAAAGAUCGGAAGAGCACACGUCU [U7C G9C U10C U11C C12U C13G] | 1.02
14 | GGGUCGCUCCAUCAUAAUCGCGUGGAUAUGGCACGCAAGUUUCUACCGGGCACCGUAAAUGUCCGACUGGAGCCGUUCGGGCGGCUAUAAACAGACCUCAGGCCCGAAGCGUGGCGGCACCUGCCGCCGGUGGUAAAAAAGAUCGGAAGAGCACACGUCU [U7C G9C U10C U11A C12U] | 1
15 | GGGUCGCUCCAGCAUAAUCGCGUGGAUAUGGCACGCAAGUUUCUACCGGGCACCGUAAAUGUCCGACUGGAGCCGUUCGGGCGGCUAUAAACAGACCUCAGGCCCGAAGCGUGGCGGCACCUGCCGCCGGUGGUAAAAAAGAUCGGAAGAGCACACGUCU [U7C G9C U10C U11A C12G] | 0.941
16 | GGGUCGCUCCAUAAUAAUCGCGUGGAUAUGGCACGCAAGUUUCUACCGGGCACCGUAAAUGUCCGACUGGAGCCGUUCGGGCGGCUAUAAACAGACCUCAGGCCCGAAGCGUGGCGGCACCUGCCGCCGGUGGUAAAAAAGAUCGGAAGAGCACACGUCU [U7C G9C U10C U11A C12U C13A] | 1.03
17 | GGGUCGCUCCAUGAUAAUCGCGUGGAUAUGGCACGCAAGUUUCUACCGGGCACCGUAAAUGUCCGACUGGAGCCGUUCGGGCGGCUAUAAACAGACCUCAGGCCCGAAGCGUGGCGGCACCUGCCGCCGGUGGUAAAAAAGAUCGGAAGAGCACACGUCU [U7C G9C U10C U11A C12U C13G] | 1.07
18 | GGGUCGCUCCAUUAUAAUCGCGUGGAUAUGGCACGCAAGUUUCUACCGGGCACCGUAAAUGUCCGACUGGAGCCGUUCGGGCGGCUAUAAACAGACCUCAGGCCCGAAGCGUGGCGGCACCUGCCGCCGGUGGUAAAAAAGAUCGGAAGAGCACACGUCU [U7C G9C U10C U11A C12U C13U] | 1.03

Row | Variant | aptazyme ON/OFF ratio
19 | GGGUCGCUCCCAAAUAAUCGCGUGGAUAUGGCACGCAAGUUUCUACCGGGCACCGUAAAUGUCCGACUGGAGCCGUUCGGGCGGCUAUAAACAGACCUCAGGCCCGAAGCGUGGCGGCACCUGCCGCCGGUGGUAAAAAAGAUCGGAAGAGCACACGUCU [U7C G9C U10C U11C C12A C13A] | 1.04
20 | GGGUCGCUCCCAGAUAAUCGCGUGGAUAUGGCACGCAAGUUUCUACCGGGCACCGUAAAUGUCCGACUGGAGCCGUUCGGGCGGCUAUAAACAGACCUCAGGCCCGAAGCGUGGCGGCACCUGCCGCCGGUGGUAAAAAAGAUCGGAAGAGCACACGUCU [U7C G9C U10C U11C C12A C13G] | 1.05
21 | GGGUCGCUCCCAUAUAAUCGCGUGGAUAUGGCACGCAAGUUUCUACCGGGCACCGUAAAUGUCCGACUGGAGCCGUUCGGGCGGCUAUAAACAGACCUCAGGCCCGAAGCGUGGCGGCACCUGCCGCCGGUGGUAAAAAAGAUCGGAAGAGCACACGUCU [U7C G9C U10C U11C C12A C13U] | 1.04
22 | GGGUCGCUCCCACAUAAUCGCGUGGAUAUGGCACGCAAGUUUCUACCGGGCACCGUAAAUGUCCGACUGGAGCCGUUCGGGCGGCUAUAAACAGACCUCAGGCCCGAAGCGUGGCGGCACCUGCCGCCGGUGGUAAAAAAGAUCGGAAGAGCACACGUCU [U7C G9C U10C U11C C12A] | 1.03
23 | GGGUCGCUCCCGCAUAAUCGCGUGGAUAUGGCACGCAAGUUUCUACCGGGCACCGUAAAUGUCCGACUGGAGCCGUUCGGGCGGCUAUAAACAGACCUCAGGCCCGAAGCGUGGCGGCACCUGCCGCCGGUGGUAAAAAAGAUCGGAAGAGCACACGUCU [U7C G9C U10C U11C C12G] | 1.03
24 | GGGUCGCUCCCUCAUAAUCGCGUGGAUAUGGCACGCAAGUUUCUACCGGGCACCGUAAAUGUCCGACUGGAGCCGUUCGGGCGGCUAUAAACAGACCUCAGGCCCGAAGCGUGGCGGCACCUGCCGCCGGUGGUAAAAAAGAUCGGAAGAGCACACGUCU [U7C G9C U10C U11C C12U] | 1.01
25 | GGGUCGCUCCCGAAUAAUCGCGUGGAUAUGGCACGCAAGUUUCUACCGGGCACCGUAAAUGUCCGACUGGAGCCGUUCGGGCGGCUAUAAACAGACCUCAGGCCCGAAGCGUGGCGGCACCUGCCGCCGGUGGUAAAAAAGAUCGGAAGAGCACACGUCU [U7C G9C U10C U11C C12G C13A] | 1.03
26 | GGGUCGCUCCCGGAUAAUCGCGUGGAUAUGGCACGCAAGUUUCUACCGGGCACCGUAAAUGUCCGACUGGAGCCGUUCGGGCGGCUAUAAACAGACCUCAGGCCCGAAGCGUGGCGGCACCUGCCGCCGGUGGUAAAAAAGAUCGGAAGAGCACACGUCU [U7C G9C U10C U11C C12G C13G] | 1.07
27 | GGGUCGCUCCCGUAUAAUCGCGUGGAUAUGGCACGCAAGUUUCUACCGGGCACCGUAAAUGUCCGACUGGAGCCGUUCGGGCGGCUAUAAACAGACCUCAGGCCCGAAGCGUGGCGGCACCUGCCGCCGGUGGUAAAAAAGAUCGGAAGAGCACACGUCU [U7C G9C U10C U11C C12G C13U] | 1.05
28 | GGGUCGCUCCGAGAUAAUCGCGUGGAUAUGGCACGCAAGUUUCUACCGGGCACCGUAAAUGUCCGACUGGAGCCGUUCGGGCGGCUAUAAACAGACCUCAGGCCCGAAGCGUGGCGGCACCUGCCGCCGGUGGUAAAAAAGAUCGGAAGAGCACACGUCU [U7C G9C U10C U11G C12A C13G] | 1.05
29 | GGGUCGCUCCGAAAUAAUCGCGUGGAUAUGGCACGCAAGUUUCUACCGGGCACCGUAAAUGUCCGACUGGAGCCGUUCGGGCGGCUAUAAACAGACCUCAGGCCCGAAGCGUGGCGGCACCUGCCGCCGGUGGUAAAAAAGAUCGGAAGAGCACACGUCU [U7C G9C U10C U11G C12A C13A] | 1.14
30 | GGGUCGCUCCGAUAUAAUCGCGUGGAUAUGGCACGCAAGUUUCUACCGGGCACCGUAAAUGUCCGACUGGAGCCGUUCGGGCGGCUAUAAACAGACCUCAGGCCCGAAGCGUGGCGGCACCUGCCGCCGGUGGUAAAAAAGAUCGGAAGAGCACACGUCU [U7C G9C U10C U11G C12A C13U] | 1.04
31 | GGGUCGCUCCCCGAUAAUCGCGUGGAUAUGGCACGCAAGUUUCUACCGGGCACCGUAAAUGUCCGACUGGAGCCGUUCGGGCGGCUAUAAACAGACCUCAGGCCCGAAGCGUGGCGGCACCUGCCGCCGGUGGUAAAAAAGAUCGGAAGAGCACACGUCU [U7C G9C U10C U11C C13G] | 1.04
32 | GGGUCGCUCCCCAAUAAUCGCGUGGAUAUGGCACGCAAGUUUCUACCGGGCACCGUAAAUGUCCGACUGGAGCCGUUCGGGCGGCUAUAAACAGACCUCAGGCCCGAAGCGUGGCGGCACCUGCCGCCGGUGGUAAAAAAGAUCGGAAGAGCACACGUCU [U7C G9C U10C U11C C13A] | 1.02
33 | GGGUCGCUCCCCUAUAAUCGCGUGGAUAUGGCACGCAAGUUUCUACCGGGCACCGUAAAUGUCCGACUGGAGCCGUUCGGGCGGCUAUAAACAGACCUCAGGCCCGAAGCGUGGCGGCACCUGCCGCCGGUGGUAAAAAAGAUCGGAAGAGCACACGUCU [U7C G9C U10C U11C C13U] | 1.01
34 | GGGUCGCUCCAAUAUAAUCGCGUGGAUAUGGCACGCAAGUUUCUACCGGGCACCGUAAAUGUCCGACUGGAGCCGUUCGGGCGGCUAUAAACAGACCUCAGGCCCGAAGCGUGGCGGCACCUGCCGCCGGUGGUAAAAAAGAUCGGAAGAGCACACGUCU [U7C G9C U10C U11A C12A C13U] | 1.05
35 | GGGUCGCUCCAAGAUAAUCGCGUGGAUAUGGCACGCAAGUUUCUACCGGGCACCGUAAAUGUCCGACUGGAGCCGUUCGGGCGGCUAUAAACAGACCUCAGGCCCGAAGCGUGGCGGCACCUGCCGCCGGUGGUAAAAAAGAUCGGAAGAGCACACGUCU [U7C G9C U10C U11A C12A C13G] | 1.05
36 | GGGUCGCUCCAAAAUAAUCGCGUGGAUAUGGCACGCAAGUUUCUACCGGGCACCGUAAAUGUCCGACUGGAGCCGUUCGGGCGGCUAUAAACAGACCUCAGGCCCGAAGCGUGGCGGCACCUGCCGCCGGUGGUAAAAAAGAUCGGAAGAGCACACGUCU [U7C G9C U10C U11A C12A C13A] | 1.08
